Measurements taken from the supplement of paper PMC11502859.

Test system: HEK293T
Assay: median enrichment of reporter reads in eGFP-reduced (low/intermediate) vs eGFP-high sorted cells (eGFP-extension fusion abundance) (ratio); higher = stronger loss of eGFP-fusion protein abundance (more destabilising extension)
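Also: lentiviral eGFP-IRES-mCherry reporter pool sorted by FACS 96 h post-transduction, gated on mCherry-high cells, Illumina read counts normalized per million, median across four biological replicates.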

ZNF28, sequence (chain, as listed by the source): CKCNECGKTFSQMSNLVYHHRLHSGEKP

Row | Substance | median enrichment
1 | YYYLQMKLTYTDLSSLMKKIRCYPIK [RBM11] | 13
2 | YYYY [Tyr04] | 4.17
3 | YYYYY [Tyr05] | 22.4
4 | YYYYYY [Tyr06] | 2.81
5 | YYYYYYY [Tyr07] | 3.18
6 | YYYYYYYY [Tyr08] | 5.87
7 | YYYYYYYYY [Tyr09] | 4.03
8 | YYYYYYYYYY [Tyr10] | 6.9
9 | ZNF28 | 1.64
